Laboratory results taken from patent US20170204172A1 (IMMUNDIAGNOSTIK, published 2017).

B1: chimeric version of the rat mAb anti-BSP_IDK1 (antibody, V domains shown)
VH: QVQLQESGAELVRPGSSVKISCKASGYTFTDFYMHWVKQGPEQGLVWIGRINPANGNTIYAEKFKTKATLTADKSSNTAYMQLSSLTSEDTATYFCSSAYWGQGTLVTVSS
VL: DILLTQTPPTSSATIGQSVSISCRSSQSLLDNDGNTYTLYWYLQRPTQSPQLLIYLVSKLRSGVPNRFSGSGSGTDFTLKISGVEAEDLGVYYCVQGTHDPWTFGGGTKLELKR
notes: The entries include a signal peptide that is marked only by underlining in a drawing; Kappa light chain; also called chimeric version of a rat mAB - IDK 1; human chimeric version of a monoclonal rat antibody
B2: anti-BSP_IDK2 human mAb (clone AF165R4.2-E2) (antibody, V domains shown)
VH: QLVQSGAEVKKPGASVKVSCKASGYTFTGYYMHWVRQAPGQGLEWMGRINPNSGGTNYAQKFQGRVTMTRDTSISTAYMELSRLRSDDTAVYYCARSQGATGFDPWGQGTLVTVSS
VL: QLVLTQSPSASGTPGQRVTISCSGSSSNIGSSYVYWYQQLPGAAPKLLIYRNSQRPPGVPDRFSSSKSGTSASLAISGLRSEDEADYYCATWDGSLSGWVFGGGTKLTVLG
notes: The entries include a signal peptide that is marked only by underlining in a drawing; Lambda light chain; also called fully human anti-hBSP antibody
B3: humanized antibody anti-BSP_IDK3 (clone AF177.3) (antibody, V domains shown)
VH: QVQLQQSGAEVVKPGASVKVSCKASGYTFTDFYMHWVKQAPEQGLEWMGIINPANGNTIYAEKFQGRVTMTADKSTNTVYMELSSLTSEDTATYYCSSAYWGQGTLVTVSS
VL: DIVMTQTPPSSSVTIGQPASISCKSSQSLLDNDGNTYLYWYLQKPGQSPQLLIYLVSKRRSGVPDRFSGSGSGTDFTLKISGVEAEDVGVYYCVQGTHDPWTFGGGTKVEIKR
notes: Kappa light chain; also called Humanized mAB of IDK 1

Columns and labels:
[1] = target: T1, human bone sialoprotein (BSP) in plasma (human, UniProt P21815 17-317, phosphorylated serine at positions 31, 67, 74, 75, 94, 100, 149, 280; sulphated tyrosine; multiple complex glycosylation (as described for human BSP)); assay: titration and competition experiments
T1 construct: Native BSP as present in human plasma; also called human BSP; hBSP
T1 sequence (looked up): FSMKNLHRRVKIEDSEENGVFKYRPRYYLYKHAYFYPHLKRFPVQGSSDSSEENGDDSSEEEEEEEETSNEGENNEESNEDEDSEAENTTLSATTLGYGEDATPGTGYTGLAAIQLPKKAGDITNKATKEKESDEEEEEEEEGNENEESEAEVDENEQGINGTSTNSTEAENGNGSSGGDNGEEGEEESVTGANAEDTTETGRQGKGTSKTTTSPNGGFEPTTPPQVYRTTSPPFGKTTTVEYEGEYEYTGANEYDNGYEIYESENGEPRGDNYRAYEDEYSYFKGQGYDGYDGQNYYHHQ

[2] = target: T1, human bone sialoprotein (BSP) in plasma; assay: screening of a phagemid single chain antibody library with peptide antigen and human BSP in plasma
Text: We screened differentially a synthetic human antibody library for an antibody reacting with synthetic peptide epitopes derived and common to rat or human BSP which we assumed being accessible in plasma. Moreover, we screened a proprietary synthetic human antibody library (mAB-Factory GmbH, Braunschweig, DE), prepared in accordance with DE 4122599 C2 and WO 93/01288 (PCT/EP92/01524), for phagemid-expressed single chain antibodies binding to BSP peptide epitopes with a soluble peptide antigen as indicated and with human BSP in plasma. A respective full human antibody (AF165R4.2-E2) specific for human BSP in plasma was obtained and reconstructed.

binding result [1]	binding result [2]	Binder
binds	–	B1
–	binds	B2
binds	–	B3
